# According to patent US20140287989A1 (CENTRE NATIONAL DE LA RECHERCHE SCIENTIFIQUE, published 2014):
# Values joined by “and” are separate entries in the source; they are usually repeats but may differ in a detail not shown here. Equal values may be shown once. Square brackets hold non-standard residues; d marks the D form. Phe(3,4-Cl2) = N[C@@H](Cc1ccc(Cl)c(Cl)c1)C(=O)O; Phe(4-Br) = N[C@@H](Cc1ccc(Br)cc1)C(=O)O; Phe(4-Cl) = N[C@@H](Cc1ccc(Cl)cc1)C(=O)O; Phe(4-Me) = Cc1ccc(C[C@H](N)C(=O)O)cc1; hCha = N[C@@H](CCC1CCCCC1)C(=O)O; Cha = N[C@@H](CC1CCCCC1)C(=O)O
# B1: P8, Ac-Gln-hCha-Asp-Leu-Phe-OH (peptide)
# peptide: Ac-Q[hCha]DLF-OH
# SMILES: CC(=O)N[C@@H](CCC(N)=O)C(=O)N[C@@H](CCC1CCCCC1)C(=O)N[C@@H](CC(=O)O)C(=O)N[C@@H](CC(C)C)C(=O)N[C@@H](Cc1ccccc1)C(=O)O
# notes: X stands for the non-natural residue; also called Ac Q hCha DLF
# B2: P14, Ac-Gln-Cha-Asp-Leu-(3,4-di-Cl)Phe-OH (peptide)
# peptide: Ac-Q[Cha]DL[Phe(3,4-Cl2)]-OH
# SMILES: CC(=O)N[C@@H](CCC(N)=O)C(=O)N[C@@H](CC1CCCCC1)C(=O)N[C@@H](CC(=O)O)C(=O)N[C@@H](CC(C)C)C(=O)N[C@@H](Cc1ccc(Cl)c(Cl)c1)C(=O)O
# notes: X stands for Cha; the substituted phenylalanine is written F; also called Ac-Q Cha DL diClF; Bu29
# B3: P12, Ac-Gln-Cha-Asp-Leu-pClPhe-OH (peptide)
# peptide: Ac-Q[Cha]DL[Phe(4-Cl)]-OH
# SMILES: CC(=O)N[C@@H](CCC(N)=O)C(=O)N[C@@H](CC1CCCCC1)C(=O)N[C@@H](CC(=O)O)C(=O)N[C@@H](CC(C)C)C(=O)N[C@@H](Cc1ccc(Cl)cc1)C(=O)O
# notes: X stands for Cha; the substituted phenylalanine is written F; also called Ac-Q Cha DL pClF
# B4: E. coli DNA polymerase IV (enzyme)
# chain: MRKIIHVDMDCFFAAVEMRDNPALRDIPIAIGGSRERRGVISTANYPARKFGVRSAMPTGMALKLCPHLTLLPGRFDAYKEASNHIREIFSRYTSRIEPLSLDEAYLDVTDSVHCHGSATLIAQEIRQTIFNELQLTASAGVAPVKFLAKIASDMNKPNGQFVITPAEVPAFLQTLPLAKIPGVGKVSAAKLEAMGLRTCGDVQKCDLVMLLKRFGKFGRILWERSQGIDERDVNSERLRKSVGVERTMAEDIHHWSECEAIIERLYPELERRLAKVKPDLLIARQGVKLKFDDFQQTTQEHVWPRLNKADLIATARKTWDERRGGRGVRLVGLHVTLLDPQMERQLVLGL
# notes: Called the whole polymerase / the full PolIV enzyme; construct and tags not described; also called PolIV; Pol IV
# B5: E. coli DNA polymerase IV (enzyme)
# chain: B4 chain
# notes: also called PolIV; Pol IV
# B6: P1, H-Arg-Gln-Leu-Val-Leu-Gly-Leu-OH (peptide)
# peptide: H-RQLVLGL-OH
# notes: also called RQLVLGL; natural Cter heptamer of E. coli DNA polymerase IV
# B7: P13, Ac-Gln-Cha-Asp-Leu-pBrPhe-OH (peptide)
# peptide: Ac-Q[Cha]DL[Phe(4-Br)]-OH
# SMILES: CC(=O)N[C@@H](CCC(N)=O)C(=O)N[C@@H](CC1CCCCC1)C(=O)N[C@@H](CC(=O)O)C(=O)N[C@@H](CC(C)C)C(=O)N[C@@H](Cc1ccc(Br)cc1)C(=O)O
# notes: X stands for Cha; the substituted phenylalanine is written F; also called Ac-Q Cha DL pBrF
# B8: P1, natural C-terminal heptapeptide of E. coli DNA polymerase IV (RQLVLGL) (peptide)
# peptide: H-RQLVLGL-OH
# notes: Free peptide in ITC; also called H-Arg-Gln-Leu-Val-Leu-Gly-Leu-OH
# B9: P11, Ac-Gln-Cha-Asp-Leu-pMePhe-OH (peptide)
# peptide: Ac-Q[Cha]DL[Phe(4-Me)]-OH
# SMILES: CC(=O)N[C@@H](CCC(N)=O)C(=O)N[C@@H](CC1CCCCC1)C(=O)N[C@@H](CC(=O)O)C(=O)N[C@@H](CC(C)C)C(=O)N[C@@H](Cc1ccc(C)cc1)C(=O)O
# notes: X stands for Cha; the substituted phenylalanine is written F; also called Ac-Q Cha DL pMeF
# Tests used:
# [1] = molecular target: E. coli β clamp (β subunit of DNA polymerase III, dnaN gene product), N-tagged (E. coli) (UniProt P0A988); assay: ITC, peptide 400 µM into β ring 20 or 30 µM, 25° C
# Sequence of E. coli β clamp (β subunit of DNA polymerase III, dnaN gene product), N-tagged (E. coli) (P0A988 whole entry): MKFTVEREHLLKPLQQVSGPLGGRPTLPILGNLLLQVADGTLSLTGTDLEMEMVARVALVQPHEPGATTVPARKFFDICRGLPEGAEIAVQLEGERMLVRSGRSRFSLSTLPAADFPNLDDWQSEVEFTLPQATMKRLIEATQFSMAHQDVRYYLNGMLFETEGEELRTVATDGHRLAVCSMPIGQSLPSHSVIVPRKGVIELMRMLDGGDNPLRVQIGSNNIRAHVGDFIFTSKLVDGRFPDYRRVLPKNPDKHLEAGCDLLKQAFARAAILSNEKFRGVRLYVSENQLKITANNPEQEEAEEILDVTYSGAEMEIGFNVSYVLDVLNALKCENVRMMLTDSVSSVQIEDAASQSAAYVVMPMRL
# [2] = molecular target: E. coli β clamp (β subunit of DNA polymerase III, dnaN gene product), N-tagged (E. coli) (UniProt P0A988)
# [3] = molecular target: E. coli β clamp (β subunit of DNA polymerase III, dnaN gene product) (E. coli) (UniProt P0A988); assay: SPR competition: peptide with β ring injected on immobilized P1
# Sequence of E. coli β clamp (β subunit of DNA polymerase III, dnaN gene product) (E. coli) (P0A988 whole entry): as above
# [4] = molecular target: E. coli β clamp (β subunit of DNA polymerase III, dnaN gene product), N-tagged (E. coli) (UniProt P0A988); assay: SPR competition against P1
# [5] = molecular target: E. coli β clamp (β subunit of DNA polymerase III, dnaN gene product), N-tagged (E. coli) (UniProt P0A988); assay: SPR competition against P1, ratio of IC50 values; written as printed, the two labels seem exchanged against Table 14 and paragraph 151
# [6] = molecular target: E. coli β clamp (β subunit of DNA polymerase III, dnaN gene product) (E. coli) (UniProt P0A988); assay: SPR competition, concentration of peptide that challenges 50% of the binding of β ring to P1
# [7] = molecular target: E. coli β clamp (β subunit of DNA polymerase III, dnaN gene product), N-tagged (E. coli) (UniProt P0A988); assay: SPR competition (Biacore 3000): β ring 0.25 µM mixed with the challenger, injected on immobilised P1
# [8] = molecular target: E. coli β clamp (β subunit of DNA polymerase III, dnaN gene product), N-tagged (E. coli) (UniProt P0A988); assay: SPR competition on immobilised P1
# [9] = molecular target: E. coli β clamp (β subunit of DNA polymerase III, dnaN gene product), N-tagged (E. coli) (UniProt P0A988); assay: SPR competition on immobilised P1; ΔG = -RT ln Ki
# [10] = molecular target: T1, E. coli β clamp (β subunit of DNA polymerase III, dnaN gene product) (E. coli, UniProt P0A988 1-366); assay: SPR competition: peptide with β ring injected on immobilized P1
# T1 construct: Homodimeric ring; N-tagged protein expressed in BL21 E. coli and purified on Ni-NTA and MonoQ; also called β ring; β protein; not shown: N-terminal tag from the pET15b plasmid
# [11] = molecular target: T1, E. coli β clamp (β subunit of DNA …); assay: SPR competition; ΔG = -RT ln Ki
# [12] = molecular target: T1, E. coli β clamp (β subunit of DNA …); assay: SPR competition: peptide with β ring injected on immobilized P1; remark: listed apart in the source
# [13] = molecular target: T1, E. coli β clamp (β subunit of DNA …); assay: as above; remark: listed apart in the source
# [14] = molecular target: T2, E. coli β clamp (β subunit of DNA polymerase III, dnaN gene product), N-tagged (E. coli, UniProt P0A988 1-366); assay: SPR competition on immobilised P1; ΔG = -RT ln Ki
# T2 construct: The dnaN gene was cloned in pET15b and expressed in BL21 E. coli; also called β ring; β protein; not shown: N-terminal tag from the pET15b vector (N-tagged protein, enriched on Ni-NTA)
# T2 sequence (P0A988 whole entry): as above
# [15] = molecular target: T3, E. coli β clamp (β subunit of DNA polymerase III, dnaN gene product) (E. coli, UniProt P0A988 1-366); assay: ITC, peptide 400 µM into β ring 30 µM, 25 °C, second experiment
# T3 construct: Expressed in BL21 E. coli from pET15b with an N-terminal tag; also called β ring; β protein; not shown: N-terminal tag from plasmid pET15b ('N-tagged protein', purified on Ni-NTA)
# [16] = molecular target: T3, E. coli β clamp (β subunit of DNA …); assay: ITC, peptide 400 µM into β ring 30 µM, 25 °C
# [17] = molecular target: T3, E. coli β clamp (β subunit of DNA …); assay: SPR competition, β ring on immobilised P1
# [18] = molecular target: T2, E. coli β clamp (β subunit of DNA …); assay: cell-based or functional assay
# [19] = molecular target: T2, E. coli β clamp (β subunit of DNA …); assay: SPR competition on immobilised P1
molecule,measurement,setting,value
P13 (Ac-Q Cha DL pBrF) (peptide),Kd,[1],150 nM
same,"IC50, Pol IV based biochemical assay (inhibition of β dependent Pol IV elongation)",[2],250 nM
"P20, Ac-Q Cha DL Cha (peptide)",IC50,[3],410 nM
P3 (RQLVLF) (peptide),"IC50, Pol IV based biochemical assay (inhibition of β dependent Pol IV elongation)",[2],7000 nM
P14-8 (Ac R Q Cha K L F) (peptide; other documents disagree on this pair),Ki,[4],1000 nM
same,fold decrease in affinity against P14,[4],10 fold
same,affinity ratio against P7,[5],50 fold
same,Ki,[6],904 nM
P14-5 (Cin R Q Cha N L diClF) (peptide; other documents disagree on this pair),Ki,[6],3250 nM
"P18, Ac Q Cha D hCha F (peptide)",IC50,[3],720 nM
"P17, Ac Q Cha D Cha F (peptide)",IC50,[3],310 nM
P11 (Ac-Q Cha DL pMeF) (peptide),Kd,[1],380 nM
same,"IC50, Pol IV based biochemical assay (inhibition of β dependent Pol IV elongation)",[2],2000 nM
"P19, Ac Q ChaD NptGly F (peptide)",IC50,[3],5630 nM
P12 (Ac-Q Cha DL pClF) (peptide),Kd,[1],100 nM
same,"IC50, Pol IV based biochemical assay (inhibition of β dependent Pol IV elongation)",[2],300 nM
P2 (RQLVLL) (peptide; other documents disagree on this pair),IC50,[7],21500 nM
same,fold decrease in interaction against P1,[8],2 fold and 3 fold
same,ΔG,[9],-6.54 kcal/mol
"P23, Ac-QFDLF (peptide; other documents disagree on this pair)",IC50,[3],31600 nM
"P21, Ac-Q Cha DLW (peptide; other documents disagree on this pair)",IC50,[3],640 nM
"P22, Ac-Q Cha DL Atda (peptide)",IC50,[3],3720 nM
P4 (RQLVFL) (peptide; other documents disagree on this pair),IC50,[7],256000 nM
P14-7 (Ac R Q Cha R L F) (peptide),affinity ratio against P7,[4],> 50 fold
same,affinity ratio against P7,[5],5 fold
"P16, Ac Q Cha D hLeu F (peptide)",IC50,[3],230 nM
B1,IC50,[10],82800 nM
same,ΔG,[11],-5.74 kcal/mol
same,IC50,[12],82800 nM
B2,IC50,[13],72 nM
same,IC50,[10],77 nM
same,ΔG,[11],-9.85 kcal/mol
QLDLF [P5 (QLDLF)],ΔG,[14],-6.87 kcal/mol
B3,IC50,[13],160 nM
same,IC50,[10],160 nM
same,ΔG,[11],-9.73 kcal/mol
"Ac-QLDLF-OH (also called Ac-Gln-Leu-Asp-Leu-Phe-OH) [P6 (AcQLDLF), listing 1 of 2 here]",Kd,[15],613 nM
same,ΔG,[15],-8.3 kcal/mol
same,ΔH,[15],-11.1 kcal/mol
same,ΔS,[15],-9.08 cal/mol/deg
same,Kd,[16],820 nM
same,ΔH,[16],-11.3 kcal/mol
same,ΔS,[16],-10.4 cal/mol/deg
B4,ΔG,[14],-9.09 kcal/mol
B5,ΔG,[11],-9.09 kcal/mol
B6,IC50,[10],8850 nM
same,ΔG,[11],-7.06 kcal/mol
B7,IC50,[13],100 nM
same,IC50,[10],96 nM
same,ΔG,[11],-9.71 kcal/mol
"Ac-QLDLF-OH (also called AcQLDLF) [P6, Ac-Gln-Leu-Asp-Leu-Phe-OH]",ΔG,[11],-8.22 kcal/mol
B8,Kd,[15],2010 nM
same,ΔG,[15],-7.7 kcal/mol
same,ΔH,[15],-5.5 kcal/mol
same,ΔS,[15],7.6 cal/mol/deg
same,Kd,[16],1580 nM
same,ΔG,[16],-7.9 kcal/mol
same,ΔH,[16],-4.09 kcal/mol
same,ΔS,[16],12.8 cal/mol/deg
same,IC50,[17],8850 nM
"H-QLDLF-OH (also called QLDLF) [P5, H-Gln-Leu-Asp-Leu-Phe-OH]",ΔG,[11],-6.87 kcal/mol
B9,IC50,[13],260 nM
same,IC50,[10],260 nM
same,ΔG,[11],-9.44 kcal/mol
"Ac-QLDLF-OH (also called Ac-Gln-Leu-Asp-Leu-Phe-OH) [P6 (AcQLDLF), listing 2 of 2 here]",ΔG,[14],-8.22 kcal/mol
same,"IC50, Pol IV based biochemical assay (inhibition of β dependent Pol IV elongation)",[18],4500 nM
same,times tighter binding than P1,[19],~8 fold
